Experimental data: PMC3507513 (Molecular cell, 2010)

T1: HET-S(1–227) (Podospora anserina), B2ACC7
T1 chain: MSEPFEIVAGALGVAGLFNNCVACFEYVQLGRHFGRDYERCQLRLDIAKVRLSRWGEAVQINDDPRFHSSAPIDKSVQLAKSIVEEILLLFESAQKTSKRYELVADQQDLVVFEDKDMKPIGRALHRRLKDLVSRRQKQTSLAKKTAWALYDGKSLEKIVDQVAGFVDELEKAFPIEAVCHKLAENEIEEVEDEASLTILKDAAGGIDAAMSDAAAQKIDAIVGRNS

B1: HET-S(1–227), B2ACC7 1-227 (domain or fragment)
chain: T1 chain
B2: HET-s(1–227) (domain or fragment, Podospora anserina, UniProt Q03689 1-227, looked up)
chain: MSEPFGIVAGALNVAGLFNNCVDCFEYVQLGRPFGRDYERCQLRLDIAKARLSRWGEAVKINDDPRFHSDAPTDKSVQLAKSIVEEILLLFESAQKTSKRYELVADQQDLVVFEDKDMKPIGRALHRRLNDLVSRRQKQTSLAKKTAWALYDGKSLEKIVDQVARFVDELEKAFPIEAVCHKLAEIEIEEVEDEASLTILKDAAGGIDAAMSDAAAQKIDAIVGRNS

Experiments:
[1] = target: T1, HET-S(1–227) (Podospora anserina), …; test: […]; details: remark: other sources report otherwise
[2] = target: T1, HET-S(1–227) (Podospora anserina), …; test: NMR titration; details: remark: other sources report otherwise
NMR titration = target: the molecule itself; test: NMR titration

Binder | stoichiometry N [1] | Kd [2] [µM] | Kd (NMR titration) [µM]
B1 | 2 | 78 | 
B2 |  |  | 320 ± 37
